Assay results as given in publication PMC12582335.

Legend:
[1] = target: SARS-CoV-2 Wuhan spike protein trimer (AcroBiosystems) (SARS-CoV-2 (Wuhan)) (UniProt P0DTC2); test: ELISA; spike trimer (Wuhan or Omicron BA.1) or BSA coated on Nunc MaxiSorp plates in carbonate/bicarbonate buffer, 18 h at 4 °C; rCL-11 (CHO) in solution, either titrated on 2 µg/mL spike or 3 µg/mL on a range of spike; detected with rabbit anti-human CL-11 and HRP anti-rabbit IgG
[2] = target: SARS-CoV-2 Omicron BA.1 spike protein trimer (AcroBiosystems) (SARS-CoV-2 (Omicron BA.1)) (UniProt P0DTC2); test: as above
[3] = target: SARS-CoV-2 Wuhan spike protein trimer (AcroBiosystems) (SARS-CoV-2 (Wuhan)) (UniProt P0DTC2); test: ELISA; Wuhan spike 2 µg/mL coated; rCL-11 3 µg/mL with L-fucose or D-galactose (0 to 200 mM) or 20 mM EDTA, 18 h at 4 °C

recombinant collectin-11 (rCL-11), CHO-expressed (from UniProt Q9BWP8 26-271) (natural protein)
EC50 [1]: 7.6 nM
EC50 [2]: 6 nM
percent inhibition by L-fucose [3]: > 90%
